Measured values as given in PMC12554172, “Systematic analysis of the RGS2 degron reveals characteristics of substrate recognition by the F-box protein FBXO44” (The Journal of Biological Chemistry, 2025).

molecular target: T1, FBXO44^FBA (Homo sapiens, UniProt Q9H4M3); test: Peptide microarray (PEPperPRINT), FLAG-FBXO44^FBA binding; conditions: Table S1; RGS2^5–16 single-residue substitution; 2 μg/ml FBXO44^FBA overnight at 4 °C, PBS 0.005% Tween pH 7.4, anti-FLAG DyLight800 fluorescence; three independent experiments with three technical replicates each
T1 construct: we expressed and purified only this domain for all in vitro studies; 6xHis (N, cleaved yes); MBP (N, cleaved yes); made in house; host or cells: Escherichia coli Rosetta BL21 (λDE3)
T1 sequence (Q9H4M3 71-252 limits assumed): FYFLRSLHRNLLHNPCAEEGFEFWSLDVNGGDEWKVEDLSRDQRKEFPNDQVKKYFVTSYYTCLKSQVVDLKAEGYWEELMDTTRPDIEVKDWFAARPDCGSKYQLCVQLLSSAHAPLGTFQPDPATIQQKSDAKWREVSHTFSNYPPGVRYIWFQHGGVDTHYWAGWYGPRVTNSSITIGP
Source text: To do so, we utilized a custom peptide microarray (PEPperPRINT GmbH). The design of this array was twofold: (1) substitution at each position with every other natural eukaryotic amino acid; (2) truncation of the peptide from the C terminus. We assessed the binding of FLAG-FBXO44^FBA to the array utilizing fluorescence immunoreactivity corresponding to the amount of FLAG-FBXO44^FBA bound. […] Substitutions at Asp^12 were not only tolerated but also seemed to improve binding in every case (Fig. 3B). This, combined with the fact that substituting any residue in His^11–Met^16 with Arg, and in most cases with Lys, improved FBXO44^FBA binding, indicating the presence of negative charges at the binding interface.
Figure 2 Systematic mutation of the RGS2 degron alters FBXO44^FBA binding. A custom microarray (PEPperPRINT) was designed where each position of the RGS2^5–16 peptide was substituted for each natural amino acid. We also included truncated peptides on the array. This was incubated with purified FBXO44^FBA and probed with α-FLAG. A, a representative scan of a peptide microarray (top) and a truncated peptide (bottom). B, heatmap of mean fluorescence of quantified microarray scans. The scale represents the mean fluorescence in percentage points across all replicates, normalized to the signal obtained with the original residue at each position. C, heatmap of standard deviation of quantified microarray scans. The scale represents the standard deviation in percentage points across all replicates. […] Residues are color-coded based on properties: blue, positive charge; red, negative charge; orange, uncharged polar; green, hydrophobic; yellow, Cys (C); bright green, Pro (P); and black, Gly (G). […] Results of three independent experiments with three technical replicates each. For a statistical significance summary, see Table S1. FBXO44, F-box only protein 44; RGS2, regulator of G protein signaling 2.
Figure 3 Effects of RGS2^5–16 peptide residue changes on FBXO44^FBA binding. Data are presented as % FLAG immunoreactivity, as compared with the parent peptide residue. […] The original residue is marked in each graph with a vertical dotted line. Boxes extend from the 25th to 75th percentile with a line marking the median. Whiskers extend to the minimum and maximum. Results of three independent experiments with three technical replicates each. Data were analyzed by two-way ANOVA, with Tukey's post hoc test for pairwise comparison (simple effect within columns). Statistical significance is summarized in Table S1 and color-coded according to the legend. FBXO44, F-box only protein 44; RGS2, regulator of G protein signaling 2.
The microarray slide was seated into the incubation tray according to PEPperPRINT's instructions. The array well was then incubated in washing buffer (PBS) with 0.005% Tween (Sigma; P1379, pH 7.4) at room temperature for 15 min on an orbital shaker. Washing buffer was aspirated, and the array was then incubated with Rockland blocking buffer at room temperature for 30 min on an orbital shaker. Blocking buffer was then aspirated, and the array was incubated in staining buffer (washing buffer with 10% Rockland blocking buffer) at room temperature for 15 min on an orbital shaker. Staining buffer was aspirated, and purified FBXO44 FBA domain diluted to 2 μg/ml in staining buffer was added. The array was then placed on an orbital shaker overnight at 4 °C. The FBA domain solution was removed, and an array was washed three times with washing buffer. After the third array was incubated in staining buffer for 15 min at 4 °C on an orbital shaker. The array was then incubated with antibody dilution (anti-FLAG DyLight800 and anti-HA DyLight680, both diluted 1:2000 in staining buffer) for 45 min at 4° C on an orbital shaker. The array was then washed three times with washing buffer. […]

Row | Substance | Mean % difference from parent peptide (FLAG immunoreactivity)
1 | A8R: array RGS2^5–16 peptide, A8 substituted by R (MFLRVQHDCRPM; UniProt P41220 5-16, looked up, variant A8R) | 27.84%
2 | C13A: array RGS2^5–16 peptide, C13 substituted by A (MFLAVQHDARPM; UniProt P41220 5-16, looked up, variant C13A) | -72.59%
3 | C13D: array RGS2^5–16 peptide, C13 substituted by D (MFLAVQHDDRPM; UniProt P41220 5-16, looked up, variant C13D) | -75.39%
4 | C13E: array RGS2^5–16 peptide, C13 substituted by E (MFLAVQHDERPM; UniProt P41220 5-16, looked up, variant C13E) | -87.12%
5 | C13F: array RGS2^5–16 peptide, C13 substituted by F (MFLAVQHDFRPM; UniProt P41220 5-16, looked up, variant C13F) | -82.91%
6 | C13G: array RGS2^5–16 peptide, C13 substituted by G (MFLAVQHDGRPM; UniProt P41220 5-16, looked up, variant C13G) | -89.67%
7 | C13H: array RGS2^5–16 peptide, C13 substituted by H (MFLAVQHDHRPM; UniProt P41220 5-16, looked up, variant C13H) | -83.62%
8 | C13I: array RGS2^5–16 peptide, C13 substituted by I (MFLAVQHDIRPM; UniProt P41220 5-16, looked up, variant C13I) | -87.24%
9 | C13K: array RGS2^5–16 peptide, C13 substituted by K (MFLAVQHDKRPM; UniProt P41220 5-16, looked up, variant C13K) | -53.92%
10 | C13L: array RGS2^5–16 peptide, C13 substituted by L (MFLAVQHDLRPM; UniProt P41220 5-16, looked up, variant C13L) | -88.83%
11 | C13M: array RGS2^5–16 peptide, C13 substituted by M (MFLAVQHDMRPM; UniProt P41220 5-16, looked up, variant C13M) | -88.01%
12 | C13N: array RGS2^5–16 peptide, C13 substituted by N (MFLAVQHDNRPM; UniProt P41220 5-16, looked up, variant C13N) | -85.38%
13 | C13P: array RGS2^5–16 peptide, C13 substituted by P (MFLAVQHDPRPM; UniProt P41220 5-16, looked up, variant C13P) | -84.68%
14 | C13Q: array RGS2^5–16 peptide, C13 substituted by Q (MFLAVQHDQRPM; UniProt P41220 5-16, looked up, variant C13Q) | -77.02%
15 | C13R: array RGS2^5–16 peptide, C13 substituted by R (MFLAVQHDRRPM; UniProt P41220 5-16, looked up, variant C13R) | 35.61%
16 | C13S: array RGS2^5–16 peptide, C13 substituted by S (MFLAVQHDSRPM; UniProt P41220 5-16, looked up, variant C13S) | -87.05%

Row | Substance | Mean % difference from parent peptide (FLAG immunoreactivity)
17 | C13T: array RGS2^5–16 peptide, C13 substituted by T | -86.63%
18 | C13V: array RGS2^5–16 peptide, C13 substituted by V (MFLAVQHDVRPM; UniProt P41220 5-16, looked up, variant C13V) | -88.12%
19 | C13W: array RGS2^5–16 peptide, C13 substituted by W (MFLAVQHDWRPM; UniProt P41220 5-16, looked up, variant C13W) | -46.69%
20 | C13Y: array RGS2^5–16 peptide, C13 substituted by Y (MFLAVQHDYRPM; UniProt P41220 5-16, looked up, variant C13Y) | -42.98%
21 | D12C: array RGS2^5–16 peptide, D12 substituted by C | 43.97%
22 | D12F: array RGS2^5–16 peptide, D12 substituted by F (MFLAVQHFCRPM; UniProt P41220 5-16, looked up, variant D12F) | 34.22%
23 | D12G: array RGS2^5–16 peptide, D12 substituted by G (MFLAVQHGCRPM; UniProt P41220 5-16, looked up, variant D12G) | 28.74%
24 | D12H: array RGS2^5–16 peptide, D12 substituted by H (MFLAVQHHCRPM; UniProt P41220 5-16, looked up, variant D12H) | 37.64%
25 | D12I: array RGS2^5–16 peptide, D12 substituted by I (MFLAVQHICRPM; UniProt P41220 5-16, looked up, variant D12I) | 42.93%
26 | D12K: array RGS2^5–16 peptide, D12 substituted by K (MFLAVQHKCRPM; UniProt P41220 5-16, looked up, variant D12K) | 124.2%
27 | D12L: array RGS2^5–16 peptide, D12 substituted by L (MFLAVQHLCRPM; UniProt P41220 5-16, looked up, variant D12L) | 31.38%
28 | D12M: array RGS2^5–16 peptide, D12 substituted by M (MFLAVQHMCRPM; UniProt P41220 5-16, looked up, variant D12M) | 42.32%
29 | D12N: array RGS2^5–16 peptide, D12 substituted by N (MFLAVQHNCRPM; UniProt P41220 5-16, looked up, variant D12N) | 55.82%
30 | D12P: array RGS2^5–16 peptide, D12 substituted by P (MFLAVQHPCRPM; UniProt P41220 5-16, looked up, variant D12P) | 66.54%
31 | D12Q: array RGS2^5–16 peptide, D12 substituted by Q (MFLAVQHQCRPM; UniProt P41220 5-16, looked up, variant D12Q) | 59.62%
32 | D12S: array RGS2^5–16 peptide, D12 substituted by S (MFLAVQHSCRPM; UniProt P41220 5-16, looked up, variant D12S) | 59.59%
